From US10087225B2, “Formulation of MK2 inhibitor peptides” (MOERAE MATRIX, INC., priority 2015, dated 2018)

Columns and labels:
[1] = Heat-accelerated stability of MMI-0100 in buffers pH 4-8 (pH, appearance, HPLC assay, impurities); settings: in citrate
From the text: Testing of stability samples included pH (initial only), appearance, HPLC assay and impurities. CC=clear and colorless.

CK2α2(h) = CK2α2(h) (Homo sapiens, UniProt P19784); experiment: Kinase Profiling Assay; type: biochemical; settings: 100 μM
Plk1(h) = Plk1(h) (Homo sapiens, UniProt P53350); experiment: Kinase Profiling Assay; type: biochemical; settings: 100 μM
TAK1(h) = target: T1, TAK1(h) (Homo sapiens, UniProt O43318); experiment: Kinase Profiling Assay; type: biochemical; settings: 100 μM
T1 sequence (O43318 1-303 limits assumed): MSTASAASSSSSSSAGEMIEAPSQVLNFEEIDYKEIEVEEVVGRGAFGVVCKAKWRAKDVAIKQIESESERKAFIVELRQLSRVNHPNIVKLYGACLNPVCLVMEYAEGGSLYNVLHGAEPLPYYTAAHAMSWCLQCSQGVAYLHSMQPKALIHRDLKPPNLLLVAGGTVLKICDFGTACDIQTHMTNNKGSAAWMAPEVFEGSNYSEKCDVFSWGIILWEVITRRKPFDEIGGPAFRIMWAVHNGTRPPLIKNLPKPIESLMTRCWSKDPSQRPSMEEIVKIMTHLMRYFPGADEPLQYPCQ

CDK1/cyclinB(h) = CDK1/cyclinB(h) (Homo sapiens, UniProt P06493); experiment: Kinase Profiling Assay; type: biochemical; settings: 100 μM
EGFR(T790M)(h) = EGFR(T790M)(h) (Homo sapiens, UniProt P00533, T790M); experiment: Kinase Profiling Assay; type: biochemical; settings: 100 μM
EphA3(h) = target: T2, EphA3(h) (Homo sapiens, UniProt P29320); experiment: Kinase Profiling Assay; type: biochemical; settings: 100 μM
T2 sequence (P29320 21-983): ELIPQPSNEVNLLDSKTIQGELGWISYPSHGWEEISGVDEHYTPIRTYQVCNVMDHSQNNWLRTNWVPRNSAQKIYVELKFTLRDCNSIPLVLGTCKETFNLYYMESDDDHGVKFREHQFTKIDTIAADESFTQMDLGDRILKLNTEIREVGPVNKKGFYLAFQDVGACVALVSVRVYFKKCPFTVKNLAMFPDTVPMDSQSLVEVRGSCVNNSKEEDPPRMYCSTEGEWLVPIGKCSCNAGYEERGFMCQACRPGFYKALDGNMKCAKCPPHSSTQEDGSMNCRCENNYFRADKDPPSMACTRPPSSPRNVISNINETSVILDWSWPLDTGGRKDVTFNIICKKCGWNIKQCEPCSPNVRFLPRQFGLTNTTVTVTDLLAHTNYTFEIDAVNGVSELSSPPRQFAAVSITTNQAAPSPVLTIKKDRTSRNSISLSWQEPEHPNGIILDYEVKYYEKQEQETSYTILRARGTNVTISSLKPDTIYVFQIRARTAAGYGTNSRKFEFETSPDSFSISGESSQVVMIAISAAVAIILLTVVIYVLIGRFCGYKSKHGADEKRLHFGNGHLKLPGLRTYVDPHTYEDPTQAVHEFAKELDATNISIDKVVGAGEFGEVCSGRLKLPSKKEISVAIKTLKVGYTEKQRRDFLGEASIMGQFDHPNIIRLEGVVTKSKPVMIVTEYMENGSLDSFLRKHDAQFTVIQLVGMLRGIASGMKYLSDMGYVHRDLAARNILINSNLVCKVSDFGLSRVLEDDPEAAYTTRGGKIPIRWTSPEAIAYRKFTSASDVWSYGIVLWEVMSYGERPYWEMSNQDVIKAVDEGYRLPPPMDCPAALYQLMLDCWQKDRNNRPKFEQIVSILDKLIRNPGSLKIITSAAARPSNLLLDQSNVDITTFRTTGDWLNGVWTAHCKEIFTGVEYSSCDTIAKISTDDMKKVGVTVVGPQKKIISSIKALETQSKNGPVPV

Hck(h) = Hck(h) (Homo sapiens, UniProt P08631); experiment: Kinase Profiling Assay; type: biochemical; settings: 100 μM
HIPK3(h) = HIPK3(h) (Homo sapiens, UniProt Q9H422); experiment: Kinase Profiling Assay; type: biochemical; settings: 100 μM
PDGFRα(D842V)(h) = PDGFRα(D842V)(h) (Homo sapiens, UniProt P16234, D842V); experiment: Kinase Profiling Assay; type: biochemical; settings: 100 μM
SAPK4(h) = target: T3, SAPK4(h) (Homo sapiens, UniProt O15264); experiment: Kinase Profiling Assay; type: biochemical; settings: 100 μM
T3 sequence (O15264 1-365): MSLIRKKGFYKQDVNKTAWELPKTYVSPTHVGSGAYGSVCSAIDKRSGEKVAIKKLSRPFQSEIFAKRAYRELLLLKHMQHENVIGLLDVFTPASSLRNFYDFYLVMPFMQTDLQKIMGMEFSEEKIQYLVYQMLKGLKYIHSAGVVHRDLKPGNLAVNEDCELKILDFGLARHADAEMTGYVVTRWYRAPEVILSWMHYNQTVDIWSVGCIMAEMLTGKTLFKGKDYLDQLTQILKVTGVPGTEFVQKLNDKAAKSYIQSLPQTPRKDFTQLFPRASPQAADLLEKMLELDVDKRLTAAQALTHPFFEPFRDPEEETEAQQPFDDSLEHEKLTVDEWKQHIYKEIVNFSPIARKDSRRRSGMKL

SGK2(h) = target: T4, SGK2(h) (Homo sapiens, UniProt Q9HBY8); experiment: Kinase Profiling Assay; type: biochemical; settings: 100 μM
T4 sequence (Q9HBY8 1-367): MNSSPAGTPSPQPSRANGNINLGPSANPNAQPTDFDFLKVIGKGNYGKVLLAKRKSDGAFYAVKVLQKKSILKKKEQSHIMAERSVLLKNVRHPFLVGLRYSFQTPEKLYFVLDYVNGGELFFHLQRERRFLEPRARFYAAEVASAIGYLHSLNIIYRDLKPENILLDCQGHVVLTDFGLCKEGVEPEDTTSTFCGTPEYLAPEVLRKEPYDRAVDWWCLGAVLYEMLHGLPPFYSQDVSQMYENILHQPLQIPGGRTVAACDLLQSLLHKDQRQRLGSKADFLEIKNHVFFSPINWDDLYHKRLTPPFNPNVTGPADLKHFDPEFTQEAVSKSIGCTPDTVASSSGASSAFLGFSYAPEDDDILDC

Sequence of HIPK3(h) (Q9H422 whole entry): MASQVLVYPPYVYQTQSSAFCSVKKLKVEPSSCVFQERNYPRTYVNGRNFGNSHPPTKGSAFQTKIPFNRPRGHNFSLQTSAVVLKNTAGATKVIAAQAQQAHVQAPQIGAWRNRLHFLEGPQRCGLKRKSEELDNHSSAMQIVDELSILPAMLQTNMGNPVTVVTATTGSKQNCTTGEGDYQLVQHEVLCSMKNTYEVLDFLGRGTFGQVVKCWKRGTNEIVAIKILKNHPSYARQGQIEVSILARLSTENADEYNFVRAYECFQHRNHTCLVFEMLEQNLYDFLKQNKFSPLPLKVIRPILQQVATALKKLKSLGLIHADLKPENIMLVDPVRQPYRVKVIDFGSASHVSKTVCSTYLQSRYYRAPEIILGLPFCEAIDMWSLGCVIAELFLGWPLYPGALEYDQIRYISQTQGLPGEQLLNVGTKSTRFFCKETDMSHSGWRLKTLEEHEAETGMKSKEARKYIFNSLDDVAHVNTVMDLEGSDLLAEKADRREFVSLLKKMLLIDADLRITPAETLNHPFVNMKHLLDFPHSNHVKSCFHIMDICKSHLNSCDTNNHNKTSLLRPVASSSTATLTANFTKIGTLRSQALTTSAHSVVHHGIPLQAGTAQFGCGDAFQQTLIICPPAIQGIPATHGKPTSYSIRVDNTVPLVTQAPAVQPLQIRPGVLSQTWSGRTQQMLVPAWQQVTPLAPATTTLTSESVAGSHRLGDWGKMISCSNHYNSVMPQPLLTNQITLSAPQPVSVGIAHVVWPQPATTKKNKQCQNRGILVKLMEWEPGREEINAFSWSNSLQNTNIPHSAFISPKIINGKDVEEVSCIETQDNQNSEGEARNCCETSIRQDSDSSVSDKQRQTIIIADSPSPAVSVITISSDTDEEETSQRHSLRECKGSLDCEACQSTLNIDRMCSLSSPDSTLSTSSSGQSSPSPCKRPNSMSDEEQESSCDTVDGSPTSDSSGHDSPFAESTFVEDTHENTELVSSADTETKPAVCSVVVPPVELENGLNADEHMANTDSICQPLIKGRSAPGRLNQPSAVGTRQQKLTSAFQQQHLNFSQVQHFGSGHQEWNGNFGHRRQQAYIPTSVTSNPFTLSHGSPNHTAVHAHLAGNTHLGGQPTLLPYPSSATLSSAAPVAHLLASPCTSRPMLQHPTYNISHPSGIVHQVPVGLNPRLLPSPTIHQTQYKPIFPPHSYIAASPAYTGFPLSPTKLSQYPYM
Sequence of CDK1/cyclinB(h) (P06493 whole entry): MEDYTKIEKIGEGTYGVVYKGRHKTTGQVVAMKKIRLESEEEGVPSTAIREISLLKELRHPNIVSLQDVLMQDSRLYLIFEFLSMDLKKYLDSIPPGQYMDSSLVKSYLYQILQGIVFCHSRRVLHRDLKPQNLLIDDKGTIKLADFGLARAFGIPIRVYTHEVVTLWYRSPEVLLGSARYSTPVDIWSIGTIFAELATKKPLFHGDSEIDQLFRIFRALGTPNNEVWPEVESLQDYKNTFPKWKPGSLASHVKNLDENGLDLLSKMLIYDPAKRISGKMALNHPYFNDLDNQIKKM
Sequence of CDK1/cyclinB(h) (P14635 whole entry partner): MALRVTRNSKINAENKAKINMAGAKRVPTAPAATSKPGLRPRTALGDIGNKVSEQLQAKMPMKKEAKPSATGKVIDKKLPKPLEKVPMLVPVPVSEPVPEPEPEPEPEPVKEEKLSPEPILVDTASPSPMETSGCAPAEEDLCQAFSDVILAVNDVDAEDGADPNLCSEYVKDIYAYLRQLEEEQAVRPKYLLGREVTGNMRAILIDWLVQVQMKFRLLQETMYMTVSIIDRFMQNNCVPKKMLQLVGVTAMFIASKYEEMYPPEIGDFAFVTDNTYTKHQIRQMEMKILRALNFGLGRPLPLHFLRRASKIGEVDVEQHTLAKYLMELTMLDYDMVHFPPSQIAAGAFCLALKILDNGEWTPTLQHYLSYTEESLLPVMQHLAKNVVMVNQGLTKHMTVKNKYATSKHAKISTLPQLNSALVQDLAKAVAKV
Sequence of Hck(h) (P08631 whole entry): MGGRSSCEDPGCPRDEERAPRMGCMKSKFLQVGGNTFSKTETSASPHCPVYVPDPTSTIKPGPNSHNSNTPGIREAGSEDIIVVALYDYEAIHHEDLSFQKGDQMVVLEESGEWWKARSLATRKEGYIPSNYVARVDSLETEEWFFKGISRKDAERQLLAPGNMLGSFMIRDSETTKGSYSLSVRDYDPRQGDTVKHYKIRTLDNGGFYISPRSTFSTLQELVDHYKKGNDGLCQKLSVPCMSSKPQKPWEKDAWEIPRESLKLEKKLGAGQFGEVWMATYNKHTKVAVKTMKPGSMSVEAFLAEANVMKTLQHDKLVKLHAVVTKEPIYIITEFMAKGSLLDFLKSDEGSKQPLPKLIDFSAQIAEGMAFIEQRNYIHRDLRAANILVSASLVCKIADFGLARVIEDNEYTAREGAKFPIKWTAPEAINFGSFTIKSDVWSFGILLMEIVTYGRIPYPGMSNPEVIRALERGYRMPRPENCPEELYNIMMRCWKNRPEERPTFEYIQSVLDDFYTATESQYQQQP
Sequence of CK2α2(h) (P19784 whole entry): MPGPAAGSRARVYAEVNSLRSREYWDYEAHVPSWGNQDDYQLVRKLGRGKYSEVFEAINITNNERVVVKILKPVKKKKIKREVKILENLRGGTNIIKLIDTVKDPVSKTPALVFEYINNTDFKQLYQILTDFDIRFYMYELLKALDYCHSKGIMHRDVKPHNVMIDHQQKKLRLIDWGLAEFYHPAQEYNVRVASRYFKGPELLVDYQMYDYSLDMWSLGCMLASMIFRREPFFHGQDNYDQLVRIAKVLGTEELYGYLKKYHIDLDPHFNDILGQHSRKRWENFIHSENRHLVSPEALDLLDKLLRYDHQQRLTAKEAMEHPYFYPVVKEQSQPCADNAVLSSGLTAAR
Sequence of PDGFRα(D842V)(h) (P16234 24-1089 D842V): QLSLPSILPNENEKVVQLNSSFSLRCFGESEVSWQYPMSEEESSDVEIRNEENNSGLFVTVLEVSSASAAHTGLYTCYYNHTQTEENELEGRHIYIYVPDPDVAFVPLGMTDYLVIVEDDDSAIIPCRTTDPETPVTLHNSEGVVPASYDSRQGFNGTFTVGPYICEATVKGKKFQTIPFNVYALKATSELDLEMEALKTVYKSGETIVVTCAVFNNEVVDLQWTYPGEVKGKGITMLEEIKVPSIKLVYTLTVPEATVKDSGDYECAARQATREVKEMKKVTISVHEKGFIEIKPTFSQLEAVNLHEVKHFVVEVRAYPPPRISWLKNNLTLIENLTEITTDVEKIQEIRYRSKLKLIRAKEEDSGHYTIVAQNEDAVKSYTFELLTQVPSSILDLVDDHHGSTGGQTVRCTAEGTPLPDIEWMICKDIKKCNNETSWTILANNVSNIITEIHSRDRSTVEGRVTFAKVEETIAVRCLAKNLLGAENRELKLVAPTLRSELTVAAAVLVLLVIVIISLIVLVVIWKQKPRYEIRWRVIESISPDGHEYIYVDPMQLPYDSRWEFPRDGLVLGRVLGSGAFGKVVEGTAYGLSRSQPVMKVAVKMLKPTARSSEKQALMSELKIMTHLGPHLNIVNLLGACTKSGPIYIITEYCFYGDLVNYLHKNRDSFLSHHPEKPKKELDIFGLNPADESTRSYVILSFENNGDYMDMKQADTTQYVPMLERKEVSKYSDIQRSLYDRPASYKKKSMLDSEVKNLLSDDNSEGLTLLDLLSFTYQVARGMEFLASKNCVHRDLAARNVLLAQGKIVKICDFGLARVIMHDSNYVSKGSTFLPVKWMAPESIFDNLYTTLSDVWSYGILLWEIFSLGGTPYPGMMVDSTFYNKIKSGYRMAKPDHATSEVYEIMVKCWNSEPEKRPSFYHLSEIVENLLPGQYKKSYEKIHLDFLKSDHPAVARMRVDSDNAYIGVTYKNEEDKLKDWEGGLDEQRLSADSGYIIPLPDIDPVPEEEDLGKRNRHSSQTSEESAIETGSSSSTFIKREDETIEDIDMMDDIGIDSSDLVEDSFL
Sequence of Plk1(h) (P53350 whole entry): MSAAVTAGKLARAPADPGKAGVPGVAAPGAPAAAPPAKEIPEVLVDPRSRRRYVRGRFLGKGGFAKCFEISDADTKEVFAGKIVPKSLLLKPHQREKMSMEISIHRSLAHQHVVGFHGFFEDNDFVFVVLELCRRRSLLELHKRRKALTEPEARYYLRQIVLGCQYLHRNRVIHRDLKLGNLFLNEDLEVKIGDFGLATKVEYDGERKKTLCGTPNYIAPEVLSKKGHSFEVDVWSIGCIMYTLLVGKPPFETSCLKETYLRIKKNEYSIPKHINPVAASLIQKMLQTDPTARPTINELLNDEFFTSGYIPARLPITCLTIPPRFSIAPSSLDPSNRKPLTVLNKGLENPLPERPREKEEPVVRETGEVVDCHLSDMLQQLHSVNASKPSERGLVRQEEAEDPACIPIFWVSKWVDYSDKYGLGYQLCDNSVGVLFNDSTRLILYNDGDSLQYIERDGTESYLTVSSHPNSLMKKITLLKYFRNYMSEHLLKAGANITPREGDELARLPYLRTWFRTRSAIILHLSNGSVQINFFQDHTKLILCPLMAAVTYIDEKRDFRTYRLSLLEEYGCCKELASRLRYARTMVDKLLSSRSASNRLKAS

H-YARAAARQARAKALARQLGVAA-OH [MMI-0100]
pH of greatest stability [1]: 6

YARAAARQARAKALNRQLGVA (Mammalian) [MMI-0200]
% activity (CK2α2(h)): 88% | % activity (Plk1(h)): 128% | % activity (TAK1(h)): 124%

HRRIKAWLKKIKALARQLGVAA (Mammalian) [MMI-0500]
% activity (CDK1/cyclinB(h)): 57% | % activity (EGFR(T790M)(h)): 70% | % activity (EphA3(h)): 33% | % activity (Hck(h)): 78% | % activity (HIPK3(h)): 85% | % activity (PDGFRα(D842V)(h)): 170% | % activity (SAPK4(h)): 48% | % activity (SGK2(h)): -1%
